Results reported in patent publication US5612190.

Target: group I phospholipase A2
Test: 125I-PLA2-I binding in COS7 culture supernatant, polyethylene glycol coprecipitation

B1: secretion type PLA2-I receptor protein (receptor)
chain: ETAAWAVTPERLREWQDKGIFIIQSENLEKCIQASKSTLTLENCKPPNKYMLWKWVSNHRLFNIGGSGCLGLNVSSPEQPLSIYECDSTHVSLKWHCNKKTITGPLQYLVQVKQDNTLVASRKYLHKWVSYMSGGGGICDYLHKDLYTIKGNAHGTPCMFPFQYNQQWHHECTREGREDNLLWCATTSRYERDEKWGFCPDPTSTEVGCDAVWEKDLHSRICYQFNLLSSLSWSEAHSSCQMQGAALLSIADETEENFVRKHLGSEAVEVWMGLNQLDEDAGWQWSDRTPLNYLNWKPEINFEPFVEYHCGTFNAFMPKAWKSRDCESTLPYVCKKYLNPTDHGVVEKDAWKYYATHCEPGWNPHNRNCYKLQKEKKTWNEALQSCQSNNSVLTDITSLAEVEFLVTLLGDENASETWIGLSSHKIPVSFEWSNGSSVTFTNWHTLEPHIFPNRSQLCVSAEQSEGHWKVKNCEETLFYLCKKTGLVLSDTESGCQKGWERHGKFCYKIDTVLRSFDHASSGYYCPPALITITSRFEQAFITSLISSVVKTKDTYFWIALQDQNNTGEYTWKTAGQQLEPVKYTHWNTRQPRYSGGCVVMRGRSHPGRWEVRDCRHFKAMSLCKQPVENREKTKQEEGWPFHPCYLDWESEPGLASCFKVFHSEKVLMKRTWRQAEEFCEEFGAHLASFAHIEEENFVNELLHSKFNRTEERQFWIGFNKRNPLNAGSWEWSDGTPVVSSFLDNSYFGEDARNCAVYKANKTLLPSYCGSKREWICKIPRDVRPKVPPWYQYDAPWLFYQDAEYLFHISASEWSSFEFVCGWLRSDILTIHSAHEQEFIHSKIRALSKYGVNWWIGLREERASDEFRWRDGSPVIYQNWDKGKERSMGLNESQRCGFISSITGLWASEECSISMPSICKRKKVWVIEKKKDIPKQHGTCPKGWLYFDYKCLLLKIPEGPSDWKNWTSAQDFCVEEGGTLVAIENEVEQAFITMNLFGHTTNVWIGLQDDDYEKWLNGRPVSYSNWSPFDTKNIPNHNTTEVQKRIPLCGLLSNNPNFHFTGKWYFEDCREGYGFVCEKMQDASGHSINTSDMYPIPNTLEYGNRTYKIINANMTWYTALKTCLMHGAELASITDQYHQSFLTVILNRVGYAHWIGLFTEDNGLSFDWSDGTKSSFTFWKDDESSFLGDCVFADTSGRWSSTACESYLQGAICQVPTETRLSGRLELCSETSIPWIKFKSNCYSFSTVLESTSFEAAHEFCKKKGSNLLTIKDEAENSFLLEELLAFRSSVQMIWLNAQFDGDNETIKWFDGTPTDQSNWGIRKPEVYHFKPHLCVALRIPEGVWQLSSCQDKKGFICKMEADIHTVKKHPGK
Q: How did the Kd turn out when B1 was run?
A: The Kd was 0.8 nM.
